Among the data in the supplement of paper PMC10567573 are protein stability index values, retold here.

To fix the notation:
B1: UFD1L (parent)
chain: EAGGRFVAFSGEGQSLRKKGRKP
B2: KCNK9 (parent)
chain: DVPDLQSVCSCTCYRSQDYGGRSV
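Also: lentivirally expressed fusions sorted by FACS into six bins by GFP to DsRed ratio, PSI derived from sequencing read proportions per bin multiplied by bin number.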

The first series covers variants of B1. In words: protein stability index of a GFP-peptide fusion (GPS, HEK-293T) (PSI 1-6); higher = more stable. The following applies: c terminus: native.
As for EAGGRFVAFSGEGQPLRKKGRKP, the protein stability index came to 2.16.

With EAGGRFVAFSGEGQVLRKKGRKP, the protein stability index worked out at 1.72.

Take EAGGRFVAFSGEGQYLRKKGRKP: the protein stability index worked out at 2.91.

With EAGGRFVAFSGEGQRLRKKGRKP, the protein stability index was 2.45.

Consider EAGGRFVAFSGEGQTLRKKGRKP, for which the protein stability index is 1.84.

On to EAGGRFVAFSGEGQSLRKGGRKP, for which the protein stability index stood at 3.02.

Consider EAGGRFVAFSGEGQSLRKQGRKP, for which the protein stability index is 2.05.

As for EAGGRFVAFSGEGQSLRKRGRKP, the protein stability index was found to be 1.68.

For EAGGRFVAFSGEGQSLRKTGRKP, the protein stability index was 3.08.

For EAGGRFVAFSGEGQSLRKCGRKP, the protein stability index was 2.4.

For EAGGRFVAFSGEGQSLRKEGRKP, the protein stability index was 1.58.

Regarding EAGGRFVAFSGEGQSLRKPGRKP, the protein stability index stood at 1.07.

EAGGRFVAFSGEGQSLRKDGRKP: the protein stability index came out at 1.74.

Regarding EAGGRFVAFSGEGQSLRKAGRKP, the protein stability index amounted to 3.83.

Consider EAGGRFVAFSGEGQSLRKKGMKP, for which the protein stability index is 4.38.

As to EAGGRFVAFSGEGQSLRKKGQKP, the protein stability index was determined as 5.19.

EAGGRFVAFSGEGQSLRKKGGKP: the protein stability index amounted to 5.2.

Take EAGGRFVAFSGEGQSLRKKGPKP: the protein stability index was found to be 4.98.

In the case of EAGGRFVAFSGEGQSLRKKGIKP, the protein stability index is 3.99.

Take EAGGRFVAFSGEGQSLRKKGYKP: the protein stability index is 4.7.

For EAGGRFVAFSGEGQSLRKKGSKP, the protein stability index was determined as 2.83.

Consider EAGGRFVAFSGEGQSLRKKGTKP, for which the protein stability index is 4.35.

With EAGGRFVAFSGEGQSLRKKGAKP, the protein stability index came to 4.78.

On to EAGGRFVAFSGEGQSLRKKGVKP, for which the protein stability index turned out to be 4.06.

Take EAGGRFVAFSGEGQSLRKKGKKP: the protein stability index came to 5.

Regarding EAGGRFVAFSGEGQSLRKKGNKP, the protein stability index is 5.27.

With EAGGRFVAFSGEGQSLRKKGLKP, the protein stability index worked out at 2.88.

On to EAGGRFVAFSGEGQSLRKKGCKP, for which the protein stability index came to 3.45.

For the variant EAGGRFVAFSGEGQSLNKKGRKP, the protein stability index is 3.46.

Consider EAGGRFVAFSGEGQSLDKKGRKP, for which the protein stability index is 3.

As to EAGGRFVAFSGEGQSLHKKGRKP, the protein stability index stood at 2.2.

As to EAGGRFVAFSGEGQSLGKKGRKP, the protein stability index is 2.95.

Take EAGGRFVAFSGEGQSLKKKGRKP: the protein stability index came out at 2.88.

In the case of EAGGRFVAFSGEGQSLLKKGRKP, the protein stability index was 2.18.

With EAGGRFVAFSGEGQSLMKKGRKP, the protein stability index is 2.25.

With EAGGRFVAFSGEGQSLTKKGRKP, the protein stability index turned out to be 2.03.

Regarding EAGGRFVAFSGEGQSLCKKGRKP, the protein stability index amounted to 1.48.

For EAGGRFVAFSGEGQSLSKKGRKP, the protein stability index was 2.73.

Regarding EAGGRFVAFSGEGQSLRKKGRKL, the protein stability index turned out to be 3.73.

For the variant EAGGRFVAFSGEGQSLRKKGRKC, the protein stability index turned out to be 3.15.

On to EAGGRFVAFSGEGQSLRKKGRKI, for which the protein stability index was 3.95.

In the case of EAGGRFVAFSGEGQSLRKKGRKQ, the protein stability index was determined as 4.65.

Consider EAGGRFVAFSGEGQSLRKKGRKK, for which the protein stability index is 4.87.

In the case of EAGGRFVAFSGEGQSLRKKGRKN, the protein stability index turned out to be 2.62.

Consider EAGGRFVAFSGEGQSLRKKGRKM, for which the protein stability index worked out at 2.85.

Consider EAGGRFVAFSGEGQSLRKKGRKS, for which the protein stability index worked out at 3.2.

As to EAGGRFVAFSGEGQSLRKKGRKY, the protein stability index came out at 3.01.

EAGGRFVAFSGEGQSLRKKGRKV: the protein stability index stood at 4.09.

Regarding EAGGRFVAFSGEGQSLRKKGRKW, the protein stability index is 5.5.

EAGGRFVAFSGEGQSLRKKARKP: the protein stability index turned out to be 3.91.

As to EAGGRFVAFSGEGQSLRKKMRKP, the protein stability index was found to be 1.57.

On to EAGGRFVAFSGEGQSLRKKERKP, for which the protein stability index was 2.78.

Regarding EAGGRFVAFSGEGQSLRKKHRKP, the protein stability index stood at 3.25.

Take EAGGRFVAFSGEGQSLRKKNRKP: the protein stability index turned out to be 1.82.

Consider EAGGRFVAFSGEGQSLRKKDRKP, for which the protein stability index was 2.12.

Turning to EAGGRFVAFSGEGQSLRKKSRKP, the protein stability index came out at 2.12.

As to EAGGRFVAFSGEGQSLRKKVRKP, the protein stability index was determined as 2.53.

Turning to EAGGRFVAFSGEGQSLRKKLRKP, the protein stability index is 2.04.

As for EAGGRFVAFSGEGQSLRKKQRKP, the protein stability index was determined as 3.83.

Consider EAGGRFVAFSGEGQSLRKKPRKP, for which the protein stability index turned out to be 4.77.

With EAGGRFVAFSGEGQSLRKKWRKP, the protein stability index was 1.81.

As for EAGGRFVAFSGEGQSLRKKKRKP, the protein stability index came to 4.63.

As for EAGGRFVAFSGEGQSLRIKGRKP, the protein stability index amounted to 3.76.

Consider EAGGRFVAFSGEGQSLRVKGRKP, for which the protein stability index turned out to be 1.39.

On to EAGGRFVAFSGEGQSLRTKGRKP, for which the protein stability index turned out to be 1.97.

On to EAGGRFVAFSGEGQSLRHKGRKP, for which the protein stability index stood at 1.24.

As for EAGGRFVAFSGEGQSLRQKGRKP, the protein stability index was 1.87.

As to EAGGRFVAFSGEGQSLRRKGRKP, the protein stability index was 1.48.

As to EAGGRFVAFSGEGQSLREKGRKP, the protein stability index was 1.49.

As for EAGGRFVAFSGEGQSLRFKGRKP, the protein stability index is 2.3.

Turning to EAGGRFVAFSGEGQSLRDKGRKP, the protein stability index came to 2.01.

As for EAGGRFVAFSGEGQSLRCKGRKP, the protein stability index came to 2.11.

Consider EAGGRFVAFSGEGQSNRKKGRKP, for which the protein stability index was found to be 2.61.

Regarding EAGGRFVAFSGEGQSDRKKGRKP, the protein stability index amounted to 3.34.

In the case of EAGGRFVAFSGEGQSCRKKGRKP, the protein stability index is 2.79.

In the case of EAGGRFVAFSGEGQSRRKKGRKP, the protein stability index came out at 2.64.

For EAGGRFVAFSGEGQSSRKKGRKP, the protein stability index stood at 3.42.

On to EAGGRFVAFSGEGQSYRKKGRKP, for which the protein stability index turned out to be 2.51.

Consider EAGGRFVAFSGEGQSWRKKGRKP, for which the protein stability index was determined as 1.03.

For the variant EAGGRFVAFSGEGQSTRKKGRKP, the protein stability index was determined as 2.18.

Turning to EAGGRFVAFSGEGQSQRKKGRKP, the protein stability index was determined as 2.72.

For EAGGRFVAFSGEGQSVRKKGRKP, the protein stability index was found to be 2.98.

Consider EAGGRFVAFSGEGQSERKKGRKP, for which the protein stability index is 2.53.

Consider EAGGRFVAFSGEGQSMRKKGRKP, for which the protein stability index turned out to be 1.65.

With EAGGRFVAFSGEGQSPRKKGRKP, the protein stability index amounted to 1.18.

Turning to EAGGRFVAFSGEGQSLRKKGRIP, the protein stability index came out at 2.43.

For EAGGRFVAFSGEGQSLRKKGRTP, the protein stability index was 1.45.

Consider EAGGRFVAFSGEGQSLRKKGRDP, for which the protein stability index stood at 2.

Turning to EAGGRFVAFSGEGQSLRKKGRFP, the protein stability index amounted to 2.77.

As for EAGGRFVAFSGEGQSLRKKGRNP, the protein stability index was determined as 2.93.

For EAGGRFVAFSGEGQSLRKKGRGP, the protein stability index came out at 2.15.

In the next series the parent is B2. The series is described as above. The following applies: c terminus: a fixed tail appended.
As for DVPDLQSVCSCTCYRSQDYGGDSV, the protein stability index was determined as 3.58.

Turning to DVPDLQSVCSCTCYRSQDYGGISV, the protein stability index stood at 1.93.

Consider DVPDLQSVCSCTCYRSQDYGGFSV, for which the protein stability index worked out at 1.33.

Take DVPDLQSVCSCTCYRSQDYGGCSV: the protein stability index was determined as 2.38.
